From patent US20080312158A1 (University of California, published 2008) come the findings set out here.

This data set deals with the molecule itself. Description: aggregation assay of S2 cells transfected with fasciclin IV (homophilic adhesion). The source says: To ask whether fasciclin IV can function as a homophilic cell adhesion molecule, the fasciclin IV cDNA with the complete ORF was placed under the control of the inducible metallothionein promoter (Bunch et al. 1988). transfected into S2 cells, and assayed for its ability to promote adhesion in normally non-adhesive S2 cells. Following induction with copper, fasciclin IV was synthesized in these S2 cells as shown by Western blot analysis and cell surface staining of induced S2 cells with the polyclonal antiserum described above.
A restriction fragment containing the full length fasciclin IV cDNA was cloned into pRmHa-3 (Bunch et al, 1988) and co-transformed into Drosophila S2 cells (Schneider, 1972) with the plasmid pPC4 (Jokerst et al., 1989), which confers a-amanitin resistance. S2 cells were transformed using the Lipofectin Reagent and recommended protocol (BRL) with minor modifications. All other S2 cell manipulations are essentially as described (Snow et al., 1989), including adhesion assays. Fasciclin IV expression in transformed cell lines was induced for adhesion assays and histology by adding CuSO₄ to 0.7 mM and incubating for at least 48 hrs. […] Amount of protein per lane in each sample loaded: fasciclin IV protein, ˜5 ng; S2 cell membranes, […]; grasshopper membranes […]. […]

B1: Grasshopper fasciclin IV (now called G-Semaphorin I) (other)
chain: WVNDVSPKMYVQFGEERVQRFLGNESHKDHFKLLEKDHNSLLVGARNIVYNISLRDLTEFTEQRIEWHSSGAHRELCYLKGKSEDDCQNYIRVLAKIDDDRVLICGTNAYKPLCRHYALKDGDYVVEKEYEGRGLCPFDPDHNSTAIYSEGQLYSATVADFSGTDPLIYRGPLRTERSDLKQLNAPNFVNTMEYNDFIFFFFRETAVEYINCGKAIYSRVARVCKHDKGGPHQGGDRWTSFLKSRLNCSVPGDYPFYFNEIQSTSDIIEGNYGGQVEKLIYGVFTTPVNSIGGSAVCAFSMKSILESFDGPFKEQETMNSNWLAVPSLKVPEPRPGQCVNDSRTLPDVSVNFVKSHTLMDEAVPAFFTRPILIRISLQYRFTKIAVDQQVRTPDGKAYDVLFIGTDDGKVIKALNSASFDSSDTVDSVVIEELQVLPPGVPVKNLYVVRMDGDDSKLVVVSDDEILAIKLHRCGSDKITNCRECVSLQDPYCAWDNVELKCTAVGSPDWSAGKRRFIQNISLGEHKACGGRPQTEIVASPVPTQPTTKSSGDPVHSIHQAEFEPEIDNEIVIGVDDSNVIPNTLAEINHAGSKLPSSQEKLPIYTAETLTIAIVTSCLGALVVGFISGFLFSRRCRGEDYTDMPFPDQRHQLNRLTEAGLNADSPYLPPCANNKAAINLVLNVPPKNANGKNANSSAENKPIQKVKKTYI
modifications: N-linked oligosaccharides (shown by N-Glycanase treatment)
notes: also called 6F8 antigen; grasshopper Semaphorin I
With B1, the binding result is recorded as “no binding”.
